{"source": "paper PMC4051647", "about": "“Two Adjacent and Similar TetR Family Transcriptional Regulator Genes, SAV577 and SAV576, Co-Regulate Avermectin Production in Streptomyces avermitilis”"}
{"biological_target": "T1, His6-SAV577 (Streptomyces avermitilis ATCC31267?) (UniProt Q82QD3)", "T1 sequence": "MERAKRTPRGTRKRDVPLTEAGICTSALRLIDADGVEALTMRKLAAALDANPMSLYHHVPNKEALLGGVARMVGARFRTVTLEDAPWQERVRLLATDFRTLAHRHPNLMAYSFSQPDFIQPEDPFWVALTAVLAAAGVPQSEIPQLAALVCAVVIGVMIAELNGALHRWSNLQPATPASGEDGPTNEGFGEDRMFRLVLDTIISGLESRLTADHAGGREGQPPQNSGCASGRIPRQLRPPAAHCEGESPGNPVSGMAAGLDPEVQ", "assay": "EMSA", "conditions": "EMSA: Roche DIG Gel Shift kit binding buffer, 1 ug poly[d(I-C)] per 20 ul, 25 C 30 min, 5% native PAGE 0.5x TBE; footprinting: 20 mM HEPES pH 7.6, 10 mM …"}
{"molecule": "GCTCTCGGAATTGTTCGTTCCCTCGCACTACACGTTCGAGATCGGAACGTGAAGACCAGCACGCTCCAGCCCGTTCGGATGCCGTACGTAGTCCGCCATGGCCAAGGGAATGAGCCCCACTCAGGCAGCGCCCTCGTACTCGTCCACGACCAGATGCTTGGACAGCAGCGCCTGAACCGCGTCCGGCGGAAAGTATCAGTGGACGAACG (double strand) [probe 577p]", "binding": "no binding"}
{"molecule": "GAAGGCATACAGCGTATGGAAACGGGGCGCTGCCGTACCGGCGCCCCGTCACACCGAATGGCGCCCTGCCCGCCTTTCCCCTTGGAGGAGCCAGCCAT (double strand) [probe 1]", "binding": "binds more weakly"}
{"molecule": "ATATGCCCTGCCGAGGAGACCCTGGCGAACCCGCCTTGCCCGCTCTCGCGGACTGATACCGGCCTGATCGAGCGCGGCATGGAGACGTACGGGCGCCGCCGCGAGGCGGCACACGCGCCTGCTTCTCCGGCGCTGCCGTCAGTCGCCGACGCGCATGGGTGCAGACCCGACCTCCGCGATGCGTACTGGCGGGCAGGGGGATTGGCTGCTCACCGGGATGTAGCCGCGGCCGCCGTCGCGGATCGTGGGTGTCCTCC (double strand) [probe 4]", "binding": "no binding"}
{"molecule": "GGTATTCCATTCGGTGTTGCAGCACGCGACCCACTGCGCATCCCACTCGTGAATTGTGGACCGCCATCCGGGGCACGGATGTCTCCAGGAAGGAACTCCTTCACCCTCGCGAACACCACCTCAGAATCCCACGATCATCAGTTAATCATCAAAGTCAGCGACCTTGACACTACCCCGCCCACCAGGGCAAATTCATAACA (double strand) [probe 7]", "binding": "no binding"}
{"molecule": "GAAACTCAATCGGCAGACCTGGGGTCGAGAAACAGGAACGTTTCGGCCCATCAGGGACGGCGTCGCTCACGCAGCGGGGTCGCATCAGGATCAGGCGCTGCCGAACGCTCTCCCGGCTGGAGGAGGCGAGGGGAGACCGGTCGCCGCCAGCCGGCGGCTCGACCGGGCCACCGGTGGGTGCGCCCCGGGGAGGACACCCACGATCCGCGACGGCGGCCGCGGCTACATCCCGGTGAGCAGCCAATCCCCCTGCCCGCCAGTACGCATCGCGGAGGT (double strand) [probe 3]", "binding": "no binding"}
{"biological_target": "T2, His6-SAV577 (UniProt Q82QD3 1-265)", "T2 sequence": "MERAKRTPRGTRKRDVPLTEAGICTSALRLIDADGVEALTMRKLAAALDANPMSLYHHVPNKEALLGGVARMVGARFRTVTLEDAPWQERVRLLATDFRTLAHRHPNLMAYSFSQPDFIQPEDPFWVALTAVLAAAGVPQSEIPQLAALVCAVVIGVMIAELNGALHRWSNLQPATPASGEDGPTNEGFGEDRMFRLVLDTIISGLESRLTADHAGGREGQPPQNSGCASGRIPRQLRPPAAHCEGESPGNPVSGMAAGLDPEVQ", "assay": "EMSA; 0.3 nM probe; EMSA: Roche DIG Gel Shift kit binding buffer, 1 ug poly[d(I-C)] per 20 ul, 25 C 30 min, 5% native PAGE 0.5x TBE; footprinting: 20 mM HEPES pH 7.6, 10 mM (NH4)2SO4, 1 mM DTT, 0.2% Tween-20, 30 mM KCl, 25 C binding", "conditions": "protein: recombinant; tags: N-terminal His6; chain copies: 2; label: DIG 3'-end; blunt"}
{"molecule": "probe 2 (dsDNA) DNA 1: CCCAGGTCTGCCGATTGAGTTTCCATACGTCGTATGGTACTAC DNA 2: GTAGTACCATACGACGTATGGAAACTCAATCGGCAGACCTGGG", "binding result": "binds"}
{"molecule": "probe 6 (dsDNA) DNA 1: AGTCGCCATACGCTGTACGGTACCAGCGCCCGCGGCACTGCGG DNA 2: CCGCAGTGCCGCGGGCGCTGGTACCGTACAGCGTATGGCGACT", "binding result": "binds"}
